The text below walks through data of patent US20230035798A1 (CAPELLA BIOSCIENCE, published 2023).

The target in assay [1] is T1, human LIGHT (TNFSF14), full length, membrane-bound (214E allele) (human, UniProt O43557 1-240).
T1 construct: also called membrane LIGHT; human membrane LIGHT
The assay is described as follows: flow cytometry, mAb binding to EL4 cells stably expressing human LIGHT [upper panel].

Assay [2] addresses T1, human LIGHT (TNFSF14), full length, …. The assay is described as follows: flow cytometry, EL4-LIGHT cells, maximum signal compared with F19 and F23. An excerpt: FIG. 7 depicts the flow cytometry analysis of the anti-membrane LIGHT mAbs (3B04 and 3D12) binding to LIGHT stably expressed on EL4 cells. The maximum signal of the IgG4 mAbs 3B04 and 3D12 binding to membrane LIGHT is approximately 40000 MFI. In contrast anti-LIGHT mAbs F19 and F23 (IgG4 mAbs from EP2292663) gave a maximal signal of approximately 120000 MFI. The ratio of binding of mAb F19 and mAb F23 is approximately 3 times that of the anti-membrane LIGHT mAbs 3B04 and 3D12. […] Other mAbs of this invention; 2E08, 3A07, 3C10, 3E09 and 2B11 also bind LIGHT in a 1:1 ratio when compared to mAbs F19 and F23 by flow cytometry.
(In flow cytometry, cells or beads pass a laser one at a time.)

For assay [3] the target is unchanged. The assay is described as follows: flow cytometry, EL4-LIGHT cells.
Target sequence in this assay (O43557 whole entry K214E): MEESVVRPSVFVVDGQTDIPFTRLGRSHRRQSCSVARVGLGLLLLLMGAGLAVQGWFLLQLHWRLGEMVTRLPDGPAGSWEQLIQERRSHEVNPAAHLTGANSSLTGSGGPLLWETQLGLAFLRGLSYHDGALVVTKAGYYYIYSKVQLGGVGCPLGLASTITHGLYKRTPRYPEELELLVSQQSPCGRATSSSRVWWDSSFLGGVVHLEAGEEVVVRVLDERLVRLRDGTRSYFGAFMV
Assay [4] shares this target. Kind of assay: KD calculated from EC50 on EL4-LIGHT cells, flow cytometry.
Assay [5] has as its target membrane LIGHT without residues 81-84 (EL4-NC-LIGHT cells) (human, UniProt O43557 1-240). The assay is described as follows: cell-based or functional assay.
The target in assay [6] is T2, soluble LIGHT, amino acids 64-240 (Abcam ab82123) (UniProt O43557 64-240).
T2 construct: range 64-240; bought protein; also called 64-240 LIGHT; Soluble LIGHT 64-240
The assay is described as follows: SPR (BIAcore), mAb captured on anti-human Fc, soluble LIGHT in flow. The procedure:
(§1) Real-time binding interactions between captured antibody (chimeric anti-membrane LIGHT monoclonal antibody) captured on a biosensor matrix via goat anti-human Fe IgG and recombinant soluble LIGHT were measured by surface plasmon resonance (SPR) using the BIAcore system (GE Healthcare) according to manufacturer's instructions and standard procedures. Briefly, soluble LIGHT was diluted in HBS running buffer (GE Healthcare) and aliquots were injected through the immobilized protein matrices at a flow rate of […]. BIAevaluation software was used to calculate association rate (ka), dissociation rate (kd) and affinity (KD).
(§2) The specificity of two lead anti-membrane LIGHT mAbs to soluble LIGHT was determined by BIAcore analysis and compared to the KD calculated from the EC50 values in Table 7 (results in Table 9). In brief, mAbs 3D12, 3B04 were compared to a mAb that binds both soluble and membrane LIGHT, F19, (F19 IgG4 mAb from EP2292663). An irrelevant anti-HEL mAb, 2A11, was used as a negative control. The mAbs were captured on an anti-human Fc mAb coated chip and soluble LIGHT was passed over the surface and the kinetic parameters were calculated using BIAcore 3000 software. The soluble LIGHT preparations used were amino acids 74-240 LIGHT (R&D Systems, 664-LI-025) and 64-240 LIGHT (Abcam, ab82123).
(In general: In SPR one partner is held on a chip, and binding of the other changes the refractive index at the surface.)

The target in assay [7] is T3, recombinant human soluble LIGHT, amino acids 74-240 (R&D Systems 664-LI-025) (human, UniProt O43557 74-240).
T3 construct: range 74-240; also called 74-240 LIGHT; Soluble LIGHT 74-240
T3 chain: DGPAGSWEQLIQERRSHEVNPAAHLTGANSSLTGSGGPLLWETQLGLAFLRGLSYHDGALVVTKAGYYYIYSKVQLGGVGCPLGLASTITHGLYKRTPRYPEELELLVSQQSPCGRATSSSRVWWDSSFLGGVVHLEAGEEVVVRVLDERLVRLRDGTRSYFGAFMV
Described as above. The procedure: as §1, §2

Assay [8] has as its target T3, recombinant human soluble LIGHT, amino …. The assay is described as follows: native mass spectrometry, LIGHT:antibody 1:5. The procedure: The LIGHT protein (R&D Systems 664-LI-025) was solubilised in PBS buffer at a final concentration of 4 μM, whereas the mAbs were maintained at 20 μM in PBS. The samples were buffer exchanged into ammonium acetate pH 7.4 at different concentrations via a column with a cut-off of 40 kDa prior to mass spectrometry optimisation. […] Samples were stored at 4° C. and were used within one week. The antibodies were diluted to 1 μM prior to MSanalysis. For complex formation the LIGHT protein was incubated with each antibody separately in 1:5 ratio on ice and native mass measurements were performed 30 min after incubation.
Native mass spectroscopy was utilised to determine the ratio of mAb bound to native trimeric LIGHT. The measured mass of 3B04 (IgG4) was 147256±0.7 Da and the F19 anti-LIGHT mAb, (IgG4 mAb from EP2292663) was 147364±6.6 Da. Unlike the monoclonal antibodies the LIGHT protein was highly heterogeneous as expected, due to post-translational glycosylation. Two major populations of the light protein were recorded with measured masses of 68 kDa and 71 kDa. Both of these proteoforms are higher in mass than the theoretical trimeric mass of the protein, 62827.38 Da. […] In the case of LIGHT binding with 3B04, the stoichiometry can be assigned to one antibody per one LIGHT protein (masses of 219630±221 Da and 216960±380 were recorded).

Positions count from the first letter of the chain named.

membrane LIGHT without residues 81-84 (EL4-NC-LIGHT cells), sequence (O43557 other isoform, or with tags, fused parts or gaps): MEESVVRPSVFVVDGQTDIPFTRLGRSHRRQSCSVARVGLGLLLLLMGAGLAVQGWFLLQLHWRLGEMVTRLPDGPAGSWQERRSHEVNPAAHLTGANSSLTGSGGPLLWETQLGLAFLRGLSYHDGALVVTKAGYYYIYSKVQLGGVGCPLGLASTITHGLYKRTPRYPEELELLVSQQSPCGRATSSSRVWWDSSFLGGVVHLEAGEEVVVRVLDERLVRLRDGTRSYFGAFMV

B1: 3B04 (antibody, human IgG4, V domains shown)
VH: QVQLQQPGAELVRPGASVTLSCKASGYTFTDYEMHWVKQTPVHGLEWIGEIDPETGDTAYSQKFKGKATLTADKSSSTAYMEFRSLTSEDSAVYYCSRETDYFFDYWGQGTTLTVSS
VL: DIQMTQTPASLSASVGETVTITCGASENIYGALNWYQRKQGKSPQLLIYGATNLADGMSSRFSGSGSGRQYSLKISSLHPDDFATYYCQNVLTTPWTFGGGTKLEIKR
notes: chimeric: mouse variable domains on human IgG4 HC (S-to-P and L-to-E at 248) and human CL; also called Parental 3B04; 3B04 chimeric
The term EC50 (read off the curve) denotes the concentration needed to bring the measured effect to its halfway point. By EC50 is commonly meant the concentration giving half of the maximal effect. As a reminder, the Kd is the constant that tells how readily two partners part at equilibrium. By koff is commonly meant a measure of how fast the partners let go of each other. In general, kon refers to a measure of how fast the partners come together. With B1, the “EC50 (read off the curve)” value in assay [1] is about 0.1 nM. The “binding ratio, mAb per LIGHT trimer” value in assay [2] is 1 mAb per LIGHT trimer. This molecule also returned a 50% effective concentration (EC50) in assay [3] of 0.12 nM. The Kd in assay [4] is 0.15 nM. In assay [5], the “IC50, inhibition of IL-8 secretion from HT-29 cells (EL4-NC-LIGHT cells)” value stood at 0.05 nM. Moreover, in assay [6], the Kd worked out at 13.8 nM, the koff worked out at 0.00345 s⁻¹ and the kon was 251000 M⁻¹ s⁻¹. In assay [7], the Kd is 15.7 nM, the off-rate constant (koff) was determined as 0.00348 s⁻¹ and the kon was determined as 222000 M⁻¹ s⁻¹. For the same molecule, the “stoichiometry, antibodies per LIGHT trimer” value in assay [8] was 1 antibodies per LIGHT trimer.

B2: 3D12 (antibody, human IgG4, V domains shown)
VH: B1 VH with G26D, Y32S, M34I, D57G, S61N, F83L
VL: B1 VL with T7S, F83V, T93S
notes: chimeric: mouse variable domains on human IgG4 HC (S-to-P and L-to-E at 248) and human CL; also called Parental 3D12; 3D12 chimeric
As to B2, the “binding ratio, mAb per LIGHT trimer” value in assay [2] turned out to be 1 mAb per LIGHT trimer. The molecule further registered an EC50 in assay [3] of 0.08 nM. Besides, the Kd in assay [4] was 0.2 nM. Also, the “IC50, inhibition of IL-8 secretion from HT-29 cells (EL4-NC-LIGHT cells)” value in assay [5] was found to be 0.32 nM. Further, in assay [6], binding was characterised by a dissociation constant (Kd) of 10.7 nM, the koff is 0.00234 s⁻¹ and the kon amounted to 219000 M⁻¹ s⁻¹. Further, in assay [7], the Kd came out at 14 nM, the koff amounted to 0.00235 s⁻¹ and the kon is 168000 M⁻¹ s⁻¹.
